Experimental data: US20110033476A1 (published 2011)

Experiments:
[1] = biological target: M2 protein of influenza A/Puerto Rico/8/34 (H1N1) (Influenza A virus A/Puerto Rico/8/34 (H1N1)) (UniProt P06821); assay: ELISA on purified A/Puerto Rico/8/34 virus coated on wells (FIG. 14a)
[2] = biological target: M2 protein of influenza A/Puerto Rico/8/34 (H1N1) (Influenza A virus A/Puerto Rico/8/34 (H1N1)) (UniProt P06821); assay: surface plasmon resonance, Fab binding to virus
[3] = biological target: T1, M2 protein of influenza A/Puerto Rico/8/34 (H1N1) (Influenza A virus A/Puerto Rico/8/34 …, UniProt P06821 1-97); assay: ELISA on influenza virus, crude supernatant (FIG. 9)
T1 construct: whole, on cells
T1 sequence (P06821 whole entry): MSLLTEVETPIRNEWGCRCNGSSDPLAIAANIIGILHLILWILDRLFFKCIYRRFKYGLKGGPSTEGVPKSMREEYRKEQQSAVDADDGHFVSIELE

M2 protein of influenza A/Puerto Rico/8/34 (H1N1) (Influenza A virus A/Puerto Rico/8/34 (H1N1)), sequence (P06821 whole entry): as above

In the case of TCN-031 (antibody), the EC50 [1] is reported as 0.1 mg/L.

Molecule TCN-032 Fab has a Kd [2] of 3.2 nM, a koff [2] of 0.0023 s⁻¹ and a kon [2] of 740000 M⁻¹ s⁻¹.

For TCN-031 Fab, the Kd [2] was 14 nM, the koff [2] was 0.014 s⁻¹ and the kon [2] was 1e+06 M⁻¹ s⁻¹.

TCN-032 (antibody) showed an EC50 [1] of 0.1 mg/L.

B1: 23K12 (antibody, V domains shown)
VH: EVQLVESGGGLVQPGGSLRISCAASGFTVSSNYMSWVRQAPGKGLEWVSVIYSGGSTYYADSVKGRFSFSRDNSKNTVFLQMNSLRAEDTAVYYCARCLSRMRGYGLDVWGQGTTVTVS
VL: DIQMTQSPSSLSASVGDRVTITCRTSQSISSYLNWYQQKPGKAPKLLIYAASSLQSGVPSRFSGSGSGTDFTLTISGLQPEDFATYYCQQSYSMPAFGQGTKLEIK
B1: binds [3].
